The numbers were not newly measured in article PMC3898597, which cites them from elsewhere.

By Kd is commonly meant a measure of binding affinity in units of concentration.

Holding throughout (assay): SPR
A general note: Surface plasmon resonance follows binding to a sensor surface in real time, without labels.

Data set [1] addresses transducin heterotrimer (Gt) (Bos taurus) (UniProt P04695).
A further data set deals with Gαt (Bos taurus) (UniProt P04695).
A further data set has as its target Gβ1γ1 (Bos taurus) (UniProt P62871).

rhodopsin, sequence (P02699 whole entry): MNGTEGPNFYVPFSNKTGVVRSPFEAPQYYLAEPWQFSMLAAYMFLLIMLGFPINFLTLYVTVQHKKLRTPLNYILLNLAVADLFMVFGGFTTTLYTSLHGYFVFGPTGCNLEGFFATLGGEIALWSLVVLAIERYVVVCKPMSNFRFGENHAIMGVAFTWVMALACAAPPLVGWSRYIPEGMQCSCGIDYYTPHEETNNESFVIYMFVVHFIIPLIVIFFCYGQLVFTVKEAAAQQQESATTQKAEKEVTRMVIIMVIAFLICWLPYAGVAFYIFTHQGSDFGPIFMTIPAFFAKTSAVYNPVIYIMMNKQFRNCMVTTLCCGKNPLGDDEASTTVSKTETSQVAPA
transducin heterotrimer (Gt) (Bos taurus), sequence (P04695 2-350, chain 1 of 3): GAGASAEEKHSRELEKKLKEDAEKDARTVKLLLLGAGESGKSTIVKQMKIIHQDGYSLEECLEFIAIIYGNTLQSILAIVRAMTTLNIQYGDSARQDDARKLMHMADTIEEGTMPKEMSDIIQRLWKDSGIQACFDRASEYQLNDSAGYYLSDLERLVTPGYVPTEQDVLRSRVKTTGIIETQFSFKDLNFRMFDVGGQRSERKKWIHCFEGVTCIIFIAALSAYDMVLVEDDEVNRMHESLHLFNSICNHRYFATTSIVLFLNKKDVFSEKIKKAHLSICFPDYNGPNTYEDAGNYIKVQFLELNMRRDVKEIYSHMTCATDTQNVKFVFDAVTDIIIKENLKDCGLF
transducin heterotrimer (Gt) (Bos taurus), sequence (P62873 2-340, chain 2 of 3, further chain): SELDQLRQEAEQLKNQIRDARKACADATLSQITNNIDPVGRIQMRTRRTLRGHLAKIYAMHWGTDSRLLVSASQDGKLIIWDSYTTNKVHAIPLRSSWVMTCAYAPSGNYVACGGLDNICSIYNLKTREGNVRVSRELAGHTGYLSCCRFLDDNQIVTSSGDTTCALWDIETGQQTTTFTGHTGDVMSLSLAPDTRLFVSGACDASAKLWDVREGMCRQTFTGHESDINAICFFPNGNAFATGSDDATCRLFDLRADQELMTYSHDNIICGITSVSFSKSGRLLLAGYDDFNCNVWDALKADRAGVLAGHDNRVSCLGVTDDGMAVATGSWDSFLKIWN
transducin heterotrimer (Gt) (Bos taurus), sequence (P02698 2-71, chain 3 of 3, further chain): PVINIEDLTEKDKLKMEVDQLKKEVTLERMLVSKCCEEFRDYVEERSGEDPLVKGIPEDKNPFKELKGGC
Gαt (Bos taurus), sequence (P04695 2-350): as the sequence (P04695 2-350, chain 1 of 3) above
rhodopsin (recombinant), sequence (P02699 whole entry): as the sequence (P02699 whole entry) above

With “rhodopsin (recombinant) (from UniProt P02699)”, in data set [1], the Kd is 0.0091 µM.
With rhodopsin (from UniProt P02699), the Kd with Gαt (Bos taurus) was 0.3 µM; in data set [1], 0.0136 µM; with Gβ1γ1 (Bos taurus) it was 0.3 µM.
